Test results published in patent publication US20200399394A1 (published 2020).
Numbering of substitutions follows the chain as printed.

T1: human CD39 (ectonucleoside triphosphate diphosphohydrolase 1) (UniProt P49961 1-510)
T1 chain: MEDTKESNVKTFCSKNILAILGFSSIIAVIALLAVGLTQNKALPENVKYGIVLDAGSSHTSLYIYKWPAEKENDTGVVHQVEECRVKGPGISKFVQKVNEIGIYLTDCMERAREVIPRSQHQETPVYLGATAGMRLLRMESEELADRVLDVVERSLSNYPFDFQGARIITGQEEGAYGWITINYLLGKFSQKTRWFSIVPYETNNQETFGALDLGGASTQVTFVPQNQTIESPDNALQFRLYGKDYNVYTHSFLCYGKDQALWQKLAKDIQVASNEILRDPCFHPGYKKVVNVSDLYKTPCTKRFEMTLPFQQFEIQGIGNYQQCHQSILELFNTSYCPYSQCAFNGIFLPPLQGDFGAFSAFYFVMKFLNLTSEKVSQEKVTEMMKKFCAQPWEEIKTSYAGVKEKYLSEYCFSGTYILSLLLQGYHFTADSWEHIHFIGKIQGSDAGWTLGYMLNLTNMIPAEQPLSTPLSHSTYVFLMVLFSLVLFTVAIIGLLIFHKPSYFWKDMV

B1: SRF370-C (antibody, V domains shown)
VH: QVQLVQSGAEVKKPGSSVKVSCKASGGTFSTYAIGWVRQAPGQGLEWMGGIIPAFGTANYAQKFQGRVTITADESTSTAYMELSSLRSEDTAVYYCARDPVRRSPFDIWGQGTMVTVSS
VL: EIVLTQSPATLSLSPGERATLSCRASQSVSSYLAWYQQKPGQAPRLLIYDSSNRATGIPARFSGSGSGTDFTLTISSLEPEDFAVYYCQQSFLWPRTFGGGTKVEIKR
B2: SRF365-C (antibody, V domains shown)
VH: QVQLVQSGAEVKKPGSSVKVSCKASGGTFSDKAISWVRQAPGQGLEWMGSILPIFGTANYAQKFQGRVTITADESTSTAYMELSSLRSEDTAVYYCAREAGYYRYRYFDLWGRGTLVTVSS
VL: EIVMTQSPATLSVSPGERATLSCRASQSVSSNLAWYQQKPGQAPRLLIYGASTRATGIPARFSGSGSGTEFTLTISSLQSEDFAVYYCQQHALWPLTFGGGTKVEIKR
B3: SRF367-C (antibody, V domains shown)
VH: B2 VH with D31S, K32E, A33G, R113K
VL: B2 VL
B4: SRF360-C (antibody, V domains shown)
VH: EVQLVESGGGLVKPGGSLRLSCAASGFTFSSYRMNWVRQAPGKGLEWVSSISSSSSSIWYADSVKGRFTISRDNAKNSLYLQMNSLRAEDTAVYYCAKGPRYDSSGYRWRYGMDVWGQGTTVTVSS
VL: DIQMTQSPSSLSASVGDRVTITCRASQSISSYLNWYQQKPGKAPKLLIYAASSLQSGVPSRFSGSGSGTDFTLTISSLQPEDFATYYCQQLYVDPPWTFGGGTKVEIKR
B5: SRF365-C (antibody, V domains shown)
VH: B2 VH
VL: B2 VL
B6: SRF367-C (antibody, V domains shown)
VH: B2 VH with D31S, K32E, A33G, R113K
VL: B2 VL
B7: SRF360-C (antibody, V domains shown)
VH: B4 VH
VL: B4 VL

Biological target: T1, human CD39 (ectonucleoside triphosphate …)
Experiment: ForteBio (BLI); IgG, monovalent

Point of comparison: B1, Kd 2.59 nM. Against it:
- B2 — 4.7-fold lower, 0.556 nM
- B3 — 1.6-fold lower, 1.57 nM
- B4 — 3.4-fold lower, 0.772 nM

Biological target: T1, human CD39 (ectonucleoside triphosphate …)
Experiment: MSD equilibrium; Fab

Point of comparison: B7, Kd 0.044 nM. Against it:
- B5 — within 1.5-fold, 0.051 nM
- B6 — 5.5-fold higher, 0.24 nM
